Experimental data taken from patent publication US6017747A, “Nucleic acids encoding a collagenase” (The Regents of the University of California, priority 1997, dated 2000).

B1: Trypsin: Recombinant rat trypsin purified by published techniques (protein, UniProt P00763 24-246, looked up)
Anionic trypsin-2: IVGGYTCQENSVPYQVSLNSGYHFCGGSLINDQWVVSAAHCYKSRIQVRLGEHNINVLEGNEQFVNAAKIIKHPNFDRKTLNNDIMLIKLSSPVKLNARVATVALPSSCAPAGTQCLISGWGNTLSSGVNEPDLLQCLDAPLLPQADCEASYPGKITDNMVCVGFLEGGKDSCQGDSGGPVVCNGELQGIVSWGYGCALPDNPGVYTKVCNYVDWIQDTIAAN

Tests used:
recombinant collagenase = target: T1, recombinant collagenase (Leptuca pugilator, UniProt P00771); test: Inhibition of collagenolytic activity of recombinant collagenase; type: biochemical, Uca pugilator; conditions: recombinant enzyme
T1 construct: the mature form of the cloned collagenase (illustrated in the boxed section) has 226 amino acid residues; made in house; host or cells: Saccharomyces cerevisiae (strain AB110 or DM101α), PyFC vector
T1 sequence (P00771 1-226 V95S): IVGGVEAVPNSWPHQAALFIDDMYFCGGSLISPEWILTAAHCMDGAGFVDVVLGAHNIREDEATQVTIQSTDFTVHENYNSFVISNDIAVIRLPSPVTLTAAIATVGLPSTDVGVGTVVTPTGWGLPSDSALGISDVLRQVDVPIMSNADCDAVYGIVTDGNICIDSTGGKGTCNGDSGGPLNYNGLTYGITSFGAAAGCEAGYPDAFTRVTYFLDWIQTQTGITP
Text: The collagenolytic activity of the recombinant collagenase was compared directly to that of the endogenous enzyme isolated from the crab hepatopancreas. The specificity and rate of collagen cleavage are similar.

[1] = Steady state kinetics versus the Suc-AAP-Xaa-pNA substrate set; type: biochemical; conditions: for r of correlation for log kcat or log (kcat /Km) versus P1 residue volume: Val and Ile omitted for chymotrypsin, Nva and Leu deleted for elastase; for correlation of log (kcat /Km) with π: hydrophobicity constant π
Procedure: Recombinant rat trypsin was purified by published techniques. Other reagents were purchased from the following sources: TLCK treated bovine chymotrypsin (Sigma), porcine elastase (Calbiochem), bovine calf skin collagen (US Biochemical), Suc-AAPAbu-pNA (Bachem of California) and Z-GPR-Sbzl (Enzyme Systems Products). All other substrates were from Bachem Bioscience. All enzyme active site titrations, substrate calibrations, kinetic assays and collagen digestions were carried out by conventional methods. Briefly, pNA kinetic assays were monitored at 410 nm (E410 =8,480 M^-1 cm^-1) in 50 mM Tris, 100 mM NaCl, 20 mM CaCl2, pH 8.0 at 25° C. 1 to 4% DMF or 2% Me2 SO was present in the final reaction buffer. Benzylthioester kinetic assays were monitored at 324 nm (E324 =19,800 M^-1 cm^-1) in the above buffer at 25° C. with the inclusion of 250 μM dithiodipyridine (Chemical Dynamics) and 2% DMF. AMC spectrofluorimetric assays were monitored at an excitation wavelength of 380 nm and an emission wavelength of 460 nm, under conditions identical to those for pNA. Assays were done in duplicate for 5 substrate concentrations, except for Suc-AAP-Asp-pNA, for which the kcat /Km was determined using 3 substrate concentrations in duplicate. The steady state kinetic parameters were determined by non-linear regression fit to the Michaelis Menten equation. Standard deviation in kcat /Km was generally less than 10%, though individual rate and binding constants varied to a greater extent. […] Kinetic parameters were plotted versus P1 residue volume and the hydrophobicity constant, π.
The Michaelis constants of the recombinant collagenase were determined for a matched set of 15 Suc-AAP-Xaa-pNA substrates, varying only in the P1 residue. […] The remaining 10 substrates Ala, Abu (2-aminobutyric acid), Nva (norvaline), Val, Nle (norleucine), Ile, Met, Orn (ornithine), Asp and Glu were selected to more fully map the specificity of crab collagenase for hydrophobic, basic and acidic residues. The substrate preference of the collagenase is quite broad. […] Acidic residues are generally poor substrates. […] This implies the existence of several distinct S1 sites or a single flexible site. […] The correlation is improved and slope essentially unchanged if only the hydrophobic residues Ala, Abu (2-aminobutyric acid), Nva (norvaline), Nle (norleucine), Leu, Met and Phe are included. […] It is unclear how the enzyme binds the neutral hydrophilic and basic residues so as to minimize the effects of charge or polarity in the transition state. Bias or insensitivity in the data set may also affect the interpretation of the correlations.
The steady state kinetic parameters of chymotrypsin and elastase versus the Suc-AAP-Xaa-pNA substrate set were determined under conditions identical to those for crab collagenase. This was necessary in order to accurately compare the activities of these different enzymes.

[2] = Single residue versus peptidyl P1-Phe substrate efficiency; type: biochemical
Procedure: (§1) Recombinant rat trypsin was purified by published techniques. Other reagents were purchased from the following sources: TLCK treated bovine chymotrypsin (Sigma), porcine elastase (Calbiochem), bovine calf skin collagen (US Biochemical), Suc-AAPAbu-pNA (Bachem of California) and Z-GPR-Sbzl (Enzyme Systems Products). All other substrates were from Bachem Bioscience. All enzyme active site titrations, substrate calibrations, kinetic assays and collagen digestions were carried out by conventional methods. Briefly, pNA kinetic assays were monitored at 410 nm (E410 =8,480 M^-1 cm^-1) in 50 mM Tris, 100 mM NaCl, 20 mM CaCl2, pH 8.0 at 25° C. 1 to 4% DMF or 2% Me2 SO was present in the final reaction buffer. Benzylthioester kinetic assays were monitored at 324 nm (E324 =19,800 M^-1 cm^-1) in the above buffer at 25° C. with the inclusion of 250 μM dithiodipyridine (Chemical Dynamics) and 2% DMF. AMC spectrofluorimetric assays were monitored at an excitation wavelength of 380 nm and an emission wavelength of 460 nm, under conditions identical to those for pNA. Assays were done in duplicate for 5 substrate concentrations, except for Suc-AAP-Asp-pNA, for which the kcat /Km was determined using 3 substrate concentrations in duplicate. The steady state kinetic parameters were determined by non-linear regression fit to the Michaelis Menten equation. […]

[3] = single residue esters; cited from earlier work
[4] = Single residue versus peptidyl P1-Ala substrate efficiency; type: biochemical
Procedure: as §1

[5] = Single residue versus peptidyl P1-Arg substrate efficiency; type: biochemical
Procedure: as §1

Molecule | inhibition of collagenolytic activity (recombinant collagenase) | correlation for log kcat or log (kcat /Km) versus P1 residue volume [1] | correlation of Km versus volume [1] | sensitivity of log (kcat /Km) to residue volume [1] | r of correlation for log kcat or log (kcat /Km) versus P1 residue volume [1] | correlation of log (kcat /Km) with π [1] | kcat /Km differential, single residue versus peptidyl substrate [2] | slope of correlation of log (k2 /KS) with π [3] | kcat /Km differential, single residue versus peptidyl substrate [4] | kcat /Km differential, single residue versus peptidyl substrate [5] [fold]
NCCc1ccc(S(=O)(=O)F)cc1 [AEBSF] | completely inhibited |  |  |  |  |  |  |  |  | 
Chymotrypsin |  | Strong positive | tight negative correlation | twice that of collagenase | ≤ 0.95 | also correlated with π | 10,000 fold | 2.2 |  | 
elastase: porcine elastase (Calbiochem) |  | negative | much weaker | twice that of collagenase | ≤ 0.95 | correlated well, with a slope equal and opposite that for chymotrypsin |  |  | 100,000 fold | 
B1 |  |  |  |  |  |  |  |  |  | 100
